Reference: patent US20030165811A1, “Method for determining the activity of ornithine decarboxylase and for identifying effectors of ornithine decarboxylase activity” (priority 2001, published 2003)

Tests used:
[1] = test system: ornithine decarboxylase (ODC); experiment: Antizyme assay: spot test growth of ODC-knockout yeast complemented with human ODC on polyamine-free medium; type: cell-based; settings: for inhibition of ODC activity (growth inhibition of the yeast cells): antizyme expressed from yeast promoters ADH, GaI1 or GPD in Y15034 with p413GaIL-ODC, PFSC plate, 30° C.
Description: The polyamine-dependent yeast strain Y15034 (ODC-knockout) and the corresponding wild-type strain Y10000 were each transformed by the Li acetate method with the plasmid p413GaIL-ODC. In addition, each of the 12 antizyme expression plasmids described in Example 2 and, as control, corresponding blank plasmids were cotransformed.
(§1) The transformants were plated out on Synthetic Complete (SC) medium (His-, Ura-,2% glucose, Difco). For each transformation, an overnight culture was inoculated in PFSC medium (His-, Ura-, 2% glucose). This was used firstly to carry out a spot test, i.e. the yeasts were adjusted to OD600 3.0 and subjected to 10-fold dilutions (5×). 2 μl of each dilution, starting with OD600 3.0, were placed as a drop on a PFSC plate (His-, Ura-, 2% galactose/raffinose [1:1]), and the plates were incubated at 30° C.

antizyme = experiment: Antizyme inhibitor assay: spot test growth of yeast co-expressing ODC, antizyme and AZI on polyamine-free medium; type: cell-based, human; settings: AZI expressed from ADH, GaIL or GPD promoter (p415); PFSC plate, 30° C.
Description: The yeasts prepared in Example 6 were each additionally cotransformed with the 3 AZI expression plasmids (p415ADH-AZI, p415GaIL-AZI and p415GPD-AZI) described in Example 3 and with the corresponding blank plasmids.
as §1, with “Ura-,Leu-, 2% glucose).” for “Ura-,2% glucose, Difco).”, “Ura-, Leu-,” for “Ura-,”, “with an” for “with”, “3.0” for “3.0,”

Sequence of ornithine decarboxylase (ODC) (P11926 whole entry): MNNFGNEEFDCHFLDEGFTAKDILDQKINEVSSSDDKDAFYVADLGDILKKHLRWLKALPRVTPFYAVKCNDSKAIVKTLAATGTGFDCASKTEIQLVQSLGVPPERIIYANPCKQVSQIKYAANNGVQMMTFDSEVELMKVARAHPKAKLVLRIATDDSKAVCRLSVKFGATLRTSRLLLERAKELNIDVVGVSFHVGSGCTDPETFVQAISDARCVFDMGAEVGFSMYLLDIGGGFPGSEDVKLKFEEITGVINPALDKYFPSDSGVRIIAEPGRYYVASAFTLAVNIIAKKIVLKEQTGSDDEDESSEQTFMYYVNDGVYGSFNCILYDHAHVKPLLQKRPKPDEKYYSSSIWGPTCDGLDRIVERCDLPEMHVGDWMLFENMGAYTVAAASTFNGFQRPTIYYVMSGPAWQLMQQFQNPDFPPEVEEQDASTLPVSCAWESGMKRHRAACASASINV

Molecule	inhibition of ODC activity (growth inhibition of the yeast cells) [1]	also measured
NCCCCN [putrescine, reference compound]	–	abolition of the antizyme-related growth inhibition ([1]; addition of putrescine to polyamine-free medium): abolish the growth inhibition
Antizyme 1: human ODC antizyme 1 (Acc. No. D87914), protein that binds and inhibits ODC, expressed in yeast from plasmid	achieved inhibition of ODC activity only with the strong GPD promoter	–
antizyme inhibitor: human antizyme inhibitor, binds antizyme and releases ODC; full-length clone from human liver cDNA, expressed in yeast (protein, UniProt O14977 1-448, looked up, full-length, full-length clone from human liver cDNA, expressed in yeast) MKGFIDDANYSVGLLDEGTNLGNVIDNYVYEHTLTGKNAFFVGDLGKIVKKHSQWQNVVAQIKPFYTVKCNSAPAVLEILAALGTGFACSSKNEMALVQELGVPPENIIYISPCKQVSQIKYAAKVGVNILTCDNEIELKKIARNHPNAKVLLHIATEDNIGGEEGNMKFGTTLKNCRHLLECAKELDVQIIGVKFHVSSACKESQVYVHALSDARCVFDMAGEIGFTMNMLDIGGGFTGTEFQLEEVNHVISPLLDIYFPEGSGVKIISEPGSYYVSSAFTLAVNIIAKKVVENDKFPSGVEKTGSDEPAFMYYMNDGVYGSFASKLSEDLNTIPEVHKKYKEDEPLFTSSLWGPSCDELDQIVESCLLPELNVGDWLIFDNMGADSFHEPSAFNDFQRPAIYYMMSFSDWYEMQDAGITSDSMMKNFFFVPSCIQLSQEDSFSAEA	–	abolition of the ODC inhibition caused by antizyme (antizyme): the ODC inhibition caused by antizyme was abolished
antizyme 2: human ODC antizyme 2 (Acc. No. AF057297), expressed in yeast from plasmid (protein, UniProt O95190 1-189, looked up) Ornithine decarboxylase …: MINTQDSSILPLSNCPQLQCCRHIVPGPLWCSDAPHPLSKIPGGRGGGRDPSLSALIYKDEKLTVTQDLPVNDGKPHIVHFQYEVTEVKVSSWDAVLSSQSLFVEIPDGLLADGSKEGLLALLEFAEEKMKVNYVFICFRKGREDRAPLLKTFSFLGFEIVRPGHPCVPSRPDVMFMVYPLDQNLSDED	effective inhibition of ODC activity was made possible also by the ADH promoter	–
antizyme 3: human ODC antizyme 3 (Acc. No. AF175296), expressed in yeast from plasmid (protein, UniProt Q9UMX2 1-235, looked up) Ornithine decarboxylase …: MPCKRCRPSVYSLSYIKRGKTRNYLYPIWSPYAYYLYCYKYRITLREKMLPRCYKSITYKEEEDLTLQPRSCLQCSESLVGLQEGKSTEQGNHDQLKELYSAGNLTVLATDPLLHQDPVQLDFHFRLTSQTSAHWHGLLCDRRLFLDIPYQALDQGNRESLTATLEYVEEKTNVDSVFVNFQNDRNDRGALLRAFSYMGFEVVRPDHPALPPLDNVIFMVYPLERDVGHLPSEPP	also by the GaI1 promoter	–
